Experimental data from patent US20230134571A1 (INTERNATIONAL AIDS VACCINE INITIATIVE, published 2023).
Where a chain is given by its changes, count along the chain named.

B1: ePGDM13 (antibody, V domains shown)
VH: QAQLVQSGPEVRKPGTSVKVSCKNPGNTLTTYDLHWVRQVPGQGLQWMGWISHEGDKKVIVERFKAKVTIDWDRSTNTAYLQLSGLTSEDTAVYYCAKGSKHRLRDYALYDEDGALNWAVDVDYLANLEFWGQGTAVTVSS
VL: DIVLTQSPLSLSVTPGESASISCKSSHSLQHGDRNNYLAWYVQKPGRSPQLLLDLASERASGVPDRFSGSGSEKDFTLKISRVETEDVGTYYCMQGRESPWTFGQGTKVDIK
B2: ePGDM5 (antibody, V domains shown)
VH: B1 VH
VL: B1 VL with I2F, S26D, L53I, E73R, S81D, T85A
B3: ePGDM9 (antibody, V domains shown)
VH: B1 VH
VL: B1 VL with H27Q, Q30I, L53I, E73R
B4: PGDM1400 (antibody, V domains shown)
VH: B1 VH with A2V, Q3H, V5T, N24A, T30K, Q39S, E89G, E112D, A126S
VL: B1 VL with I2F, L9H, Q30I, L53I, D54Y, E58S, E73D

The binders below were run against HIV Env of isolate HIV-0013095-2.11 (clade C) (HIV) (assay: cell-based or functional assay).

Binder | IC50 (µg/ml) with constrains [µg/mL]
B1 | > 100
B2 | > 100
B3 | > 100
B4 | > 100

The binders below were run against HIV Env of isolate Du422.1 (clade C) (HIV) (assay: cell-based or functional assay).

Binder | IC50 (µg/ml) with constrains [µg/mL]
B1 | 27.5
B2 | 8.64
B3 | 13.3
B4 | 33.4

Each binder was assayed against HIV Env of isolate CAP210.2.00.E8 (clade C) (HIV) (assay: cell-based or functional assay).

Binder | IC50 (µg/ml) with constrains [µg/mL]
B1 | 0.135
B2 | 0.057
B3 | 0.055
B4 | 0.33

Each binder was assayed against HIV Env of isolate CNE8 (clade AE) (HIV) (assay: cell-based or functional assay).

Binder | IC50 (µg/ml) with constrains [µg/mL] | IC80 (µg/ml) with constrains [µg/mL]
B1 | 0.005 | 0.022
B2 | 0.001 | 0.003
B3 | 0.001 | 0.002
B4 | 0.001 | 0.003

These binders were tested against HIV Env of isolate X1254_C3 (clade G) (HIV) (assay: cell-based or functional assay).

Binder | IC50 (µg/ml) with constrains [µg/mL]
B1 | 0.518
B2 | 0.217
B3 | 0.178
B4 | 45.4

Each binder was assayed against HIV Env of isolate ZM109F.PB4 (clade C) (HIV) (assay: cell-based or functional assay).

Binder | IC50 (µg/ml) with constrains [µg/mL]
B1 | 0.049
B2 | 0.03
B3 | 0.027
B4 | 0.098

These binders were tested against HIV Env of isolate 3301.v1.c24 (clade AC) (HIV) (assay: cell-based or functional assay).

Binder | IC50 (µg/ml) with constrains [µg/mL] | IC80 (µg/ml) with constrains [µg/mL]
B1 | 0.057 | 0.228
B2 | 0.043 | 0.174
B3 | 0.021 | 0.084
B4 | 0.131 | 0.523

Each binder was assayed against HIV Env of isolate ZM233M.PB6 (clade C) (HIV) (assay: cell-based or functional assay).

Binder | IC50 (µg/ml) with constrains [µg/mL]
B1 | 0.001
B2 | 0.002
B3 | 0.002
B4 | 0.002

The binders below were run against HIV Env of isolate BJOX009000.02.4 (clade AE) (HIV) (assay: cell-based or functional assay).

Binder | IC50 (µg/ml) with constrains [µg/mL] | IC80 (µg/ml) with constrains [µg/mL]
B1 | 0.265 | 1.06
B2 | 0.296 | 1.18
B3 | 0.234 | 0.936
B4 | 1.1 | 4.42

Each binder was assayed against HIV Env of isolate BF1266.431a (clade C) (HIV) (assay: cell-based or functional assay).

Binder | IC50 (µg/ml) with constrains [µg/mL]
B1 | 0.004
B2 | 0.004
B3 | 0.002
B4 | 0.006

These binders were tested against HIV Env of isolate WITO4160.33 (clade B) (HIV) (assay: cell-based or functional assay).

Binder | IC50 (µg/ml) with constrains [µg/mL]
B1 | 0.003
B2 | 0.004
B3 | 0.002
B4 | 0.003

The binders below were run against HIV Env of isolate HIV-16845-2.22 (clade C) (HIV) (assay: cell-based or functional assay).

Binder | IC50 (µg/ml) with constrains [µg/mL]
B1 | > 100
B2 | > 100
B3 | > 100
B4 | > 100

What follows are binders tested against HIV Env of isolate R1166.c01 (clade AE) (HIV) (assay: cell-based or functional assay).

Binder | IC50 (µg/ml) with constrains [µg/mL] | IC80 (µg/ml) with constrains [µg/mL]
B1 | 0.194 | 0.777
B2 | 0.166 | 0.664
B3 | 0.215 | 0.86
B4 | 1.48 | 5.92

These binders were tested against HIV Env of isolate CNE30 (clade BC) (HIV) (assay: cell-based or functional assay).

Binder | IC50 (µg/ml) with constrains [µg/mL]
B1 | > 100
B2 | > 100
B3 | > 100
B4 | > 100

These binders were tested against HIV Env of isolate CNE58 (clade BC) (HIV) (assay: cell-based or functional assay).

Binder | IC50 (µg/ml) with constrains [µg/mL]
B1 | 0.003
B2 | 0.004
B3 | 0.002
B4 | 0.003

What follows are binders tested against HIV Env of isolate Ce0393_C3 (clade C) (HIV) (assay: cell-based or functional assay).

Binder | IC50 (µg/ml) with constrains [µg/mL]
B1 | 0.006
B2 | 0.016
B3 | 0.004
B4 | 0.009

The binders below were run against HIV Env of isolate 1054_07_TC4_1499 (clade B) (HIV) (assay: cell-based or functional assay).

Binder | IC50 (µg/ml) with constrains [µg/mL]
B1 | > 100
B2 | > 100
B3 | > 100
B4 | > 100

These binders were tested against HIV Env of isolate CNE20 (clade BC) (HIV) (assay: cell-based or functional assay).

Binder | IC50 (µg/ml) with constrains [µg/mL]
B1 | 0.004
B2 | 0.004
B3 | 0.002
B4 | 0.005

The binders below were run against HIV Env of isolate R3265.c06 (clade AE) (HIV) (assay: cell-based or functional assay).

Binder | IC50 (µg/ml) with constrains [µg/mL] | IC80 (µg/ml) with constrains [µg/mL]
B1 | 0.026 | 0.104
B2 | 0.028 | 0.113
B3 | 0.019 | 0.078
B4 | 0.019 | 0.075

What follows are binders tested against HIV Env of isolate CNE52 (clade BC) (HIV) (assay: cell-based or functional assay).

Binder | IC50 (µg/ml) with constrains [µg/mL]
B1 | 2.83
B2 | 6.14
B3 | 1.85
B4 | > 100

The binders below were run against HIV Env of isolate BJOX015000.11.5 (clade AE) (HIV) (assay: cell-based or functional assay).

Binder | IC50 (µg/ml) with constrains [µg/mL] | IC80 (µg/ml) with constrains [µg/mL]
B1 | 1.72 | 6.86
B2 | 1.1 | 4.39
B3 | 0.958 | 3.83
B4 | 1.05 | 4.21

Each binder was assayed against HIV Env of isolate 6811.v7.c18 (clade CD) (HIV) (assay: cell-based or functional assay).

Binder | IC50 (µg/ml) with constrains [µg/mL]
B1 | > 100
B2 | > 100
B3 | > 100
B4 | > 100

What follows are binders tested against HIV Env of isolate CNE17 (clade BC) (HIV) (assay: cell-based or functional assay).

Binder | IC50 (µg/ml) with constrains [µg/mL]
B1 | 0.008
B2 | 0.007
B3 | 0.003
B4 | 0.005

The binders below were run against HIV Env of isolate TRJO4551.58 (clade B) (HIV) (assay: cell-based or functional assay).

Binder | IC50 (µg/ml) with constrains [µg/mL]
B1 | > 100
B2 | > 100
B3 | > 100
B4 | > 100

Each binder was assayed against HIV Env of isolate Ce2010_F5 (clade C) (HIV) (assay: cell-based or functional assay).

Binder | IC50 (µg/ml) with constrains [µg/mL]
B1 | > 100
B2 | > 100
B3 | > 100
B4 | > 100

The binders below were run against HIV Env of isolate BJOX025000.01.1 (clade AE) (HIV) (assay: cell-based or functional assay).

Binder | IC50 (µg/ml) with constrains [µg/mL] | IC80 (µg/ml) with constrains [µg/mL]
B1 | 0.018 | 0.071
B2 | 0.018 | 0.072
B3 | 0.018 | 0.072
B4 | 0.055 | 0.22
